From the supplement of paper PMC10567573

B1: WDR88 (parent)
chain: LLTITKAHSNAISNCCFTFSGHFL

Variants of: B1
Experiment: protein stability index of a GFP-peptide fusion (GPS, HEK-293T) (PSI 1-6); higher = more stable
Conditions: c terminus: a fixed tail appended
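Note: lentivirally expressed fusions sorted by FACS into six bins by GFP to DsRed ratio, PSI derived from sequencing read proportions per bin multiplied by bin number.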

Protein stability index: each site, then its substitutions
K6: A 2.8 | N 3.18 | S 2.44 | C 2.9 | G 2.44 | P 3.02 | Q 2.29 | L 3.35 | M 2.66 | R 2.72 | V 2.84 | T 2.78 | F 3.35 | I 2.88 | E 2.67 | Y 1.83 | H 3.03 | D 1.83 | W 3.12
N14: I 3.89 | F 3.06 | V 2.52 | D 3.07 | Y 2.53 | K 2.63 | T 2.94 | Q 1.82 | A 1.44 | C 3.23 | L 4.15 | E 2.25 | H 3.22 | P 3.55 | M 2.99 | W 2.37 | G 3.72 | S 2.39
L2: I 3.28 | K 2.85 | S 2.4 | Y 2.1 | Q 2.75 | R 2.41 | V 2.33 | M 2.53 | P 2.12 | W 3.22 | T 2.71 | N 2.82
G21: A 2.88
A7: D 1.86 | N 2.1 | C 2.75 | E 3.31 | Q 3.22 | L 3.04 | Y 3.09 | M 2.8 | T 2.58 | H 3.42 | S 2.54 | G 3.76 | F 2.86 | I 2.95 | W 4.07 | R 3.62 | K 2.4 | V 2.76 | P 2.04
S9: H 2.45 | V 4.49 | W 3.1 | T 2.15 | G 2.8 | I 2.46 | P 2.39 | M 2.31 | D 3.12 | R 1.77 | F 4.2 | A 3.55 | Y 3.69 | N 3.57 | C 1.89 | K 2.83 | L 2.95 | Q 3.42
T5: N 1.67 | F 4.83 | I 2.02 | E 2.58 | H 2.9 | A 3.41 | Q 1.69 | L 2.03 | M 3.85 | V 3.03 | C 2.54 | G 2.73 | K 2.37 | D 1.65 | P 2.98 | S 3.33 | Y 3.34 | R 2.72
S20: F 2.6 | L 2.94 | C 2.69 | E 2.51 | Q 2.88 | I 2.07 | N 2.94 | P 2.34 | W 2.06 | G 2.99 | K 2.04 | R 3.76 | D 1.98 | Y 2.36 | V 2.54 | A 1.09 | T 2.67 | M 2.56
S13: W 3.57 | H 3.44 | P 3.02 | R 2.7 | N 2.6 | G 2.7 | D 2.2 | T 3.02 | Q 3.54 | K 2.03 | A 2.17 | I 3.51 | V 2.2 | E 2.6 | C 2.35 | F 3.89 | M 3.08 | Y 2.48 | L 3.23
I4: T 2.8 | S 2.5 | L 2.9 | M 3.12 | N 2.89 | Q 1.8 | P 2.15 | F 3.68 | A 2.47 | Y 2.38 | V 3.9 | R 2.4 | C 2.19 | E 1.99 | H 2.36 | K 2.5 | D 3.07 | G 1.9
I12: T 2.98 | M 3.38 | R 2.74 | Y 2.33 | F 3.3 | V 3.69 | G 2.96 | S 3.14 | H 3.51 | N 2.49 | A 2.3 | E 1.77 | Q 2.57 | L 3.56 | D 1.96 | K 2.4 | P 2.55 | C 3.49
N10: S 3.46 | I 3.1 | H 2.75 | A 2.64 | Q 3.31 | T 3.75 | F 3.94 | C 4.06 | V 2.49 | D 3.19 | K 2.12 | R 2.99 | P 2.89
A11: L 3.15 | F 2.93 | T 3.57 | W 2.7 | S 3.22 | V 2.69 | C 1.97 | E 3.24 | D 2.27 | K 2.66 | M 2.82 | N 3.27 | Q 3.19 | P 3.08 | G 3.47 | H 2.82
H8: V 2.58 | F 2.59 | I 2.57 | L 3.6 | A 3.08 | Y 4.38 | C 2.53 | P 2.35 | Q 2.24 | K 3.13 | N 2.03 | E 2.27 | T 2.38 | D 3.88 | G 3.56 | R 3.29 | W 2.17 | S 2.6
F17: M 2.29 | L 3.73 | Y 3.26 | G 1.69 | I 3.65 | W 1.45 | H 1.42 | C 1.84 | S 1.37 | K 2.43 | Q 2.58 | V 2.88 | D 1.92 | E 2.35 | N 2.58 | A 2.38 | T 2.66 | P 2.13
F19: N 2.33 | A 2.16 | V 2.15 | M 1.69 | G 2.62 | L 2.82 | K 1.82 | D 2.38 | C 2.77 | P 1.88 | Q 1.63 | W 2.32 | I 2.85 | R 2.66 | H 3.04 | T 2.52 | Y 2.82 | E 1.77 | S 2.56
T18: D 2.03 | W 2.86 | K 2.33 | P 2.54 | I 2.34 | L 2.92 | G 3.29 | C 2.47 | H 2.53 | Y 2.76 | S 2.58 | R 2.93 | V 3.09 | N 3.85 | F 2.9 | E 1.84 | A 3.52 | M 2.19
C15: L 2.27 | H 2.78 | D 1.84 | K 2.11 | W 2.31 | T 3.89 | I 3.44 | G 2.42 | A 4.06 | F 3.46 | Y 2.88 | Q 3.52 | S 2.97 | R 3.77 | M 2.19 | E 2.58 | V 3.3 | N 2.98 | P 2.19
C16: K 2.37 | G 2.75 | D 2.33 | V 1.95 | H 2.61 | A 3.4 | N 4.12 | E 2.9 | Q 2.41 | Y 2.18 | M 3.28 | R 1.87 | L 3.05 | P 2.25 | S 2.44 | I 2.8 | T 2.9 | F 3.35
T3: P 2.97 | Y 2.92 | I 2.74 | F 3.14 | M 3.13 | W 2.29 | V 3.68 | L 2.37 | E 2.47 | D 2.61 | H 2.57 | N 3 | G 1.94 | S 3.22 | C 2.84 | Q 3.3 | A 2.93
